B1: germline CR9114 Fab (inferred germline of CR9114) (Fab, V domains shown)
VH: QVQLVQSGAEVKKPGSSVKVSCKASGGTFSSYAISWVRQAPGQGLEWMGGIIPIFGTANYAQKFQGRVTITADKSTSTAYMELSSLRSEDTAVYYCARHGNYYYYYGMDVWGQGTTVTVS
VL: SYVLTQPPAVSGTPGQRVTISCSGSDSNIGRRSVNWYQQFPGTAPKLLIYSNDQRPSVVPDRFSGSKSGTSASLAISGLQSEDEAEYYCAAWDDSLKGAVFGGGTQLTVL
B2: somatic CR9114 Fab VH S24F (Fab, V domains shown)
VH: QVQLVQSGAEVKKPGSSVKVSCKFSGGTSNNYAISWVRQAPGQGLDWMGGISPIFGSTAYAQKFQGRVTISADIFSNTAYMELNSLTSEDTAVYFCARHGNYYYYSGMDVWGQGTTVTVSS
VL: SYVLTQPPAVSGTPGQRVTISCSGSDSNIGRRSVNWYQQFPGTAPKLLIYSNDQRPSVVPDRFSGSKSGTSASLAISGLQSEDEAEYYCAAWDDSLKGAVFGGGTQLTVL
B3: somatic CR9114 Fab VH S24L (Fab, V domains shown)
VH: QVQLVQSGAEVKKPGSSVKVSCKLSGGTSNNYAISWVRQAPGQGLDWMGGISPIFGSTAYAQKFQGRVTISADIFSNTAYMELNSLTSEDTAVYFCARHGNYYYYSGMDVWGQGTTVTVSS
VL: SYVLTQPPAVSGTPGQRVTISCSGSDSNIGRRSVNWYQQFPGTAPKLLIYSNDQRPSVVPDRFSGSKSGTSASLAISGLQSEDEAEYYCAAWDDSLKGAVFGGGTQLTVL
B4: somatic CR9114 Fab VH S52G (Fab, V domains shown)
VH: QVQLVQSGAEVKKPGSSVKVSCKSSGGTSNNYAISWVRQAPGQGLDWMGGIGPIFGSTAYAQKFQGRVTISADIFSNTAYMELNSLTSEDTAVYFCARHGNYYYYSGMDVWGQGTTVTVSS
VL: SYVLTQPPAVSGTPGQRVTISCSGSDSNIGRRSVNWYQQFPGTAPKLLIYSNDQRPSVVPDRFSGSKSGTSASLAISGLQSEDEAEYYCAAWDDSLKGAVFGGGTQLTVL
B5: somatic CR9114 Fab VH S52V (Fab, V domains shown)
VH: QVQLVQSGAEVKKPGSSVKVSCKSSGGTSNNYAISWVRQAPGQGLDWMGGIVPIFGSTAYAQKFQGRVTISADIFSNTAYMELNSLTSEDTAVYFCARHGNYYYYSGMDVWGQGTTVTVSS
VL: SYVLTQPPAVSGTPGQRVTISCSGSDSNIGRRSVNWYQQFPGTAPKLLIYSNDQRPSVVPDRFSGSKSGTSASLAISGLQSEDEAEYYCAAWDDSLKGAVFGGGTQLTVL
B6: somatic CR9114 Fab VH I73W (Fab, V domains shown)
VH: QVQLVQSGAEVKKPGSSVKVSCKSSGGTSNNYAISWVRQAPGQGLDWMGGISPIFGSTAYAQKFQGRVTISADWFSNTAYMELNSLTSEDTAVYFCARHGNYYYYSGMDVWGQGTTVTVSS
VL: SYVLTQPPAVSGTPGQRVTISCSGSDSNIGRRSVNWYQQFPGTAPKLLIYSNDQRPSVVPDRFSGSKSGTSASLAISGLQSEDEAEYYCAAWDDSLKGAVFGGGTQLTVL

Assays:
[1] = biological target: H1 stem (recombinant HA stem construct #4900 designed based on H1N1 A/Brisbane/59/2007 HA) (influenza A virus H1N1 …, biotin on the BirA biotinylation site (BirA kit)); assay: BLI; conditions: both partners purified
[2] = biological target: T1, influenza B/Lee/1940 (B/Lee40) HA (influenza B virus B/Lee/1940, biotin on the BirA biotinylation site (BirA kit)); assay: BLI; conditions: both partners purified
T1 construct: source: Sf9 (baculovirus), purified from the supernatant (Ni Sepharose excel, SEC)
T1 chain: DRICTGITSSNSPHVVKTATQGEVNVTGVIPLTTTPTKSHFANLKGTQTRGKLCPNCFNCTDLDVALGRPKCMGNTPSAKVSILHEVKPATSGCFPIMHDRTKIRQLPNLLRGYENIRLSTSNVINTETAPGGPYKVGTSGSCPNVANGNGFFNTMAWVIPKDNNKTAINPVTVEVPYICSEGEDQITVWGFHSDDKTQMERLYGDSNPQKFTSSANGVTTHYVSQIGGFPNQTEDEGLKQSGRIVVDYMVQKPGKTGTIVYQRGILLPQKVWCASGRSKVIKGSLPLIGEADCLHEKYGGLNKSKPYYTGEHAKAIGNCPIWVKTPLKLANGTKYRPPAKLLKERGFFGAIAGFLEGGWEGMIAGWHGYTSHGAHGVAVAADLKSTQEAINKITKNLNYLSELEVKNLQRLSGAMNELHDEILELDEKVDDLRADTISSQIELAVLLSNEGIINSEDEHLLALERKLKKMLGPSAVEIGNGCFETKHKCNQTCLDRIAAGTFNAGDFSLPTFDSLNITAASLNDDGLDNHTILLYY

| Binder | Kd [1] [nM] | binding result [2] |
| --- | --- | --- |
| B1 | 185 |  |
| B2 |  | no binding |
| B3 |  | no binding |
| B4 |  | no binding |
| B5 |  | no binding |
| B6 |  | no binding |
